# Source: the supplement of paper PMC11246515
# ± gives the standard deviation of the averaged measurements.
# Assay: total protein half-life in vivo (active degradation + dilution); higher = more stable protein
# [1] = E. coli NCM3722 delta-clpP delta-lon delta-hslV, growth: N-lim chemostat, doubling time 6 h
# [2] = E. coli NCM3722 delta-clpP, growth: N-lim chemostat, doubling time 6 h
# [3] = E. coli NCM3722 delta-lon, growth: N-lim chemostat, doubling time 6 h
# [4] = E. coli NCM3722 delta-smpB, growth: N-lim chemostat, doubling time 6 h
# [5] = wild type E. coli NCM3722, growth: C-lim chemostat, doubling time 3 h
# [6] = wild type E. coli NCM3722, growth: C-lim chemostat, doubling time 6 h
# [7] = wild type E. coli NCM3722, growth: C-lim chemostat, doubling time 12 h
# [8] = wild type E. coli NCM3722, growth: N-lim chemostat, doubling time 6 h
# [9] = wild type E. coli NCM3722, growth: N-lim chemostat, doubling time 12 h
# [10] = wild type E. coli NCM3722, growth: P-lim chemostat, doubling time 6 h
# [11] = wild type E. coli NCM3722, growth: P-lim chemostat, doubling time 12 h
# [12] = E. coli NCM3722 delta-hslV, growth: N-lim chemostat, doubling time 6 h
Sequence,total protein half-life in vivo [1] [h],total protein half-life in vivo [2] [h],total protein half-life in vivo [3] [h],total protein half-life in vivo [4] [h],total protein half-life in vivo [5] [h],total protein half-life in vivo [6] [h],total protein half-life in vivo [7] [h],total protein half-life in vivo [8] [h],total protein half-life in vivo [9] [h],total protein half-life in vivo [10] [h],total protein half-life in vivo [11] [h],total protein half-life in vivo [12] [h]
MKQALRVAFGFLILWASVLHAEVRIVIDSGVDSGRPIGVVPFQWAGPGAAPEDIGGIVAADLRNSGKFNPLDRARLPQQPGSAQEVQPAAWSALGIDAVVVGQVTPNPDGSYNVAYQLVDTGGAPGTVLAQNSYKVNKQWLRYAGHTASDEVFEKLTGIKGAFRTRIAYVVQTNGGQFPYELRVSDYDGYNQFVVHRSPQPLMSPAWSPDGSKLAYVTFESGRSALVIQTLANGAVRQVASFPRHNGAPAFSPDGSKLAFALSKTGSLNLYVMDLASGQIRQVTDGRSNNTEPTWFPDSQNLAFTSDQAGRPQVYKVNINGGAPQRITWEGSQNQDADVSSDGKFMVMVSSNGGQQHIAKQDLATGGVQVLSSTFLDETPSLAPNGTMVIYSSSQGMGSVLNLVSTDGRFKARLPATDGQVKFPAWSPYL [P0A855],5.6 ± 0.21,6.39 ± 0.61,6.28 ± 0.33,6.07 ± 0.73,3.14 ± 0.04,6.59 ± 0.57,11.3 ± 0.41,6.31 ± 0.17,13.8 ± 1.4,5.89 ± 0.3,13.05 ± 0.13,–
MKIGTQNQAFFPENILEKFRYIKEMGFDGFEIDGKLLVNNIEEVKAAIKETGLPVTTACGGYDGWIGDFIEERRLNGLKQIERILEALAEVGGKGIVVPAAWGMFTFRLPPMTSPRSLDGDRKMVSDSLRVLEQVAARTGTVVYLEPLNRYQDHMINTLADARRYIVENDLKHVQIIGDFYHMNIEEDNLAQALHDNRDLLGHVHIADNHRYQPGSGTLDFHALFEQLRADNYQGYVVYEGRIRAEDPAQAYRDSLAWLRTC,5.87 ± 0.64,–,–,–,–,–,–,–,–,–,–,–
MLQNPIHLRLERLESWQHVTFMACLCERMYPNYAMFCQQTGFGDGQIYRRILDLIWETLTVKDAKVNFDSQLEKFEEAIPSADDFDLYGVYPAIDACVALSELVHSRLSGETLEHAVEVSKTSITTVAMLEMTQAGREMSDEELKENPAVEQEWDIQWEIFRLLAECEERDIELIKGLRADLREAGESNIGIIFQQ,5.09 ± 0.47,5.16 ± 0.66,5.23 ± 0.55,4.12 ± 1.1,3.1 ± 0.088,5.93 ± 0.21,–,4.84 ± 0.12,8.11 ± 0.86,6.28 ± 0.52,13.7 ± 1.8,4.79 ± 0.12
MFNRPNRNDVDDGVQDIQNDVNQLADSLESVLKSWGSDAKGEAEAARSKAQALLKETRARMHGRTRVQQAARDAVGCADSFVRERPWCSVGTAAAVGIFIGALLSMRKS [P0ADQ7],5.92 ± 0.068,–,–,4.83 ± 0.087,2.37 ± 0.46,5.79 ± 0.34,9.97 ± 1.7,5.55 ± 0.094,11.3 ± 1.4,5.17 ± 0.21,10.8 ± 0.18,7.51 ± 0.67
MKKAGLLFLVMIVIAVVAAGIGYWKLTGEESDTLRKIVLEECLPNQQQNQNPSPCAEVKPNAGYVVLKDLNGPLQYLLMPTYRINGTESPLLTDPSTPNFFWLAWQARDFMSKKYGQPVPDRAVSLAINSRTGRTQNHFHIHISCIRPDVRKQLDNNLANISSRWLPLPGGLRGHEYLARRVTESELVQRSPFMMLAEEVPEAREHMGRYGLAMVRQSDNSFVLLATQRNLLTLNRASAEEIQDHQCEILR,6.38 ± 0.31,6.726 ± 0.048,–,6.59 ± 0.21,3.17 ± 0.07,7.09 ± 1,12.8 ± 0.32,6.45 ± 0.28,–,6.13 ± 0.2,13.6 ± 0.51,6.364 ± 0.022
MSKARRWVIIVLSLAVLVMIGINMAEKDDTAQVVVNNNDPTYKSEHTDTLVYNPEGALSYRLIAQHVEYYSDQAVSWFTQPVLTTFDKDKIPTWSVKADKAKLTNDRMLYLYGHVEVNALVPDSQLRRITTDNAQINLVTQDVTSEDLVTLYGTTFNSSGLKMRGNLRSKNAELIEKVRTSYEIQNKQTQP [P0ADV9],5.91 ± 0.18,5.86 ± 0.15,5.82 ± 0.13,6.78 ± 0.24,–,5.98 ± 0.17,11.2 ± 1.9,5.55 ± 0.17,11.1 ± 0.99,5.85 ± 0.087,11.98 ± 0.014,5.92 ± 0.41
MSEMTPREIVSELDKHIIGQDNAKRSVAIALRNRWRRMQLNEELRHEVTPKNILMIGPTGVGKTEIARRLAKLANAPFIKVEATKFTEVGYVGKEVDSIIRDLTDAAVKMVRVQAIEKNRYRAEELAEERILDVLIPPAKNNWGQTEQQQEPSAARQAFRKKLREGQLDDKEIEIDLAAAPMGVEIMAPPGMEEMTSQLQSMFQNLGGQKQKARKLKIKDAMKLLIEEEAAKLVNPEELKQDAIDAVEQHGIVFIDEIDKICKRGESSGPDVSREGVQRDLLPLVEGCTVSTKHGMVKTDHILFIASGAFQIAKPSDLIPELQGRLPIRVELQALTTSDFERILTEPNASITVQYKALMATEGVNIEFTDSGIKRIAEAAWQVNESTENIGARRLHTVLERLMEEISYDASDLSGQNITIDADYVSKHLDALVADEDLSRFIL [P0A6H5],5.09 ± 0.28,5.18 ± 0.56,5.23 ± 0.29,4.21 ± 0.085,2.95 ± 0.36,5.94 ± 0.93,10.3 ± 0.44,4.79 ± 0.11,8.11 ± 0.2,5.29 ± 0.054,10.98 ± 0.036,4.46 ± 0.12
MDIPVNAAKPGRRRYLTLVMIFITVVICYVDRANLAVASAHIQEEFGITKAEMGYVFSAFAWLYTLCQIPGGWFLDRVGSRVTYFIAIFGWSVATLFQGFATGLMSLIGLRAITGIFEAPAFPTNNRMVTSWFPEHERASAVGFYTSGQFVGLAFLTPLLIWIQEMLSWHWVFIVTGGIGIIWSLIWFKVYQPPRLTKGISKAELDYIRDGGGLVDGDAPVKKEARQPLTAKDWKLVFHRKLIGVYLGQFAVASTLWFFLTWFPNYLTQEKGITALKAGFMTTVPFLAAFVGVLLSGWVADLLVRKGFSLGFARKTPIICGLLISTCIMGANYTNDPMMIMCLMALAFFGNGFASITWSLVSSLAPMRLIGLTGGVFNFAGGLGGITVPLVVGYLAQGYGFAPALVYISAVALIGALSYILLVGDVKRVG [P0AA76],–,–,–,–,–,4.54 ± 0.49,7.29 ± 0.43,–,–,–,–,–
MHRQSFFLVPLICLSSALWAAPATVNVEVLQDKLDHPWALAFLPDNHGMLITLRGGELRHWQAGKGLSAPLSGVPDVWAHGQGGLLDVVLAPDFAQSRRIWLSYSEVGDDGKAGTAVGYGRLSDDLSKVTDFRTVFRQMPKLSTGNHFGGRLVFDGKGYLFIALGENNQRPTAQDLDKLQGKLVRLTDQGEIPDDNPFIKESGARAEIWSYGIRNPQGMAMNPWSNALWLNEHGPRGGDEINIPQKGKNYGWPLATWGINYSGFKIPEAKGEIVAGTEQPVFYWKDSPAVSGMAFYNSDKFPQWQQKLFIGALKDKDVIVMSVNGDKVTEDGRILTDRGQRIRDVRTGPDGYLYVLTDESSGELLKVSPRN,1.95 ± 0.037,2.22 ± 1.1,–,1.43 ± 0.033,1.63 ± 0.43,4.09,5.83 ± 1.6,2.13,–,–,6.77,1.44 ± 0.036
MAGWHLDTKMAQDIVARTMRIIDTNINVMDARGRIIGSGDRERIGELHEGALLVLSQGRVVDIDDAVARHLHGVRQGINLPLRLEGEIVGVIGLTGEPENLRKYGELVCMTAEMMLEQSRLMHLLAQDSRLREELVMNLIQAEENTPALTEWAQRLGIDLNQPRVVAIVEVDSGQLGVDSAMAELQQLQNALTTPERNNLVAIVSLTEMVVLKPALNSFGRWDAEDHRKRVEQLITRMKEYGQLRFRVSLGNYFTGPGSIARSYRTAKTTMVVGKQRMPESRCYFYQDLMLPVLLDSLRGDWQANELARPLARLKTMDNNGLLRRTLAAWFRHNVQPLATSKALFIHRNTLEYRLNRISELTGLDLGNFDDRLLLYVALQLDEER,–,–,–,–,2.67 ± 0.12,6.76,10.2 ± 3,–,–,–,–,–
MQNNEQTEYKTVRGLTRGLMLLNMLNKLDGGASVGLLAELSGLHRTTVRRLLETLQEEGYVRRSPSDDSFRLTIKVRQLSEGFRDEQWISALAAPLLGDLLREVVWPTDVSTLDVDAMVVRETTHRFSRLSFHRAMVGRRLPLLKTASGLTWLAFCPEQDRKELIEMLASRPGDDYQLAREPLKLEAILARARKEGYGQNYRGWDQEEKIASIAVPLRSEQRVIGCLNLVYMASAMTIEQAAEKHLPALQRVAKQIEEGVESQAILVAGRRSGMHLR,6.32 ± 0.84,2.12,2.59,1.26,1.55 ± 0.24,2.35 ± 0.052,3.26 ± 1.1,1.85 ± 0.27,–,1.72 ± 0.43,2.94 ± 0.64,1.85 ± 0.042
MSSVDILVPDLPESVADATVATWHKKPGDAVVRDEVLVEIETDKVVLEVPASADGILDAVLEDEGTTVTSRQILGRLREGNSAGKETSAKSEEKASTPAQRQQASLEEQNNDALSPAIRRLLAEHNLDASAIKGTGVGGRLTREDVEKHLAKAPAKESAPAAAAPAAQPALAARSEKRVPMTRLRKRVAERLLEAKNSTAMLTTFNEVNMKPIMDLRKQYGEAFEKRHGIRLGFMSFYVKAVVEALKRYPEVNASIDGDDVVYHNYFDVSMAVSTPRGLVTPVLRDVDTLGMADIEKKIKELAVKGRDGKLTVEDLTGGNFTITNGGVFGSLMSTPIINPPQSAILGMHAIKDRPMAVNGQVEILPMMYLALSYDHRLIDGRESVGFLVTIKELLEDPTRLLLDV [P0AFG6],–,6.24 ± 0.17,5.45 ± 0.14,4.93 ± 0.068,2.97 ± 0.23,5.7 ± 0.27,11.3 ± 0.7,5.17 ± 0.35,11 ± 2.5,5.72 ± 0.087,12 ± 1.1,5.462 ± 0.018
MPRGLELLIAQTILQGFDAQYGRFLEVTSGAQQRFEQADWHAVQQAMKNRIHLYDHHVGLVVEQLRCITNGQSTDAAFLLRVKEHYTRLLPDYPRFEIAESFFNSVYCRLFDHRSLTPERLFIFSSQPERRFRTIPRPLAKDFHPDHGWESLLMRVISDLPLRLRWQNKSRDIHYIIRHLTETLGTDNLAESHLQVANELFYRNKAAWLVGKLITPSGTLPFLLPIHQTDDGELFIDTCLTTTAEASIVFGFARSYFMVYAPLPAALVEWLREILPGKTTAELYMAIGCQKHAKTESYREYLVYLQGCNEQFIEAPGIRGMVMLVFTLPGFDRVFKVIKDRFAPQKEMSAAHVRACYQLVKEHDRVGRMADTQEFENFVLEKRHISPALMELLLQEAAEKITDLGEQIVIRHLYIERRMVPLNIWLEQVEGQQLRDAIEEYGNAIRQLAAANIFPGDMLFKNFGVTRHGRVVFYDYDEICYMTEVNFRDIPPPRYPEDELASEPWYSVSPGDVFPEEFRHWLCADPRIGPLFEEMHADLFRADYWRALQNRIREGHVEDVYAYRRRQRFSVRYGEMLF,4.97,3.61,–,–,–,6.35 ± 0.23,10.7 ± 0.2,–,–,–,11.9,–
MTLTRREFIKHSGIAAGALVVTSAAPLPAWAEEKGGKILTAGRWGAMNVEVKDGKIVSSTGALAKTIPNSLQSTAADQVHTTARIQHPMVRKSYLDNPLQPAKGRGEDTYVQVSWEQALKLIHEQHDRIRKANGPSAIFAGSYGWRSSGVLHKAQTLLQRYMNLAGGYSGHSGDYSTGAAQVIMPHVVGSVEVYEQQTSWPLILENSQVVVLWGMNPLNTLKIAWSSTDEQGLEYFHQLKKSGKPVIAIDPIRSETIEFFDDNATWIAPNMGTDVALMLGIAHTLMTQGKHDKVFLEKYTTGYPQFEEYLTGKSDNTPKSAVWAAEITGVPEAQIVKLAELMAANRTMLMAGWGIQRQQYGEQKHWMLVTLAAMLGQIGTPGGGFGFSYHYSNGGNPTRVGGVLPEMSAAIAGHASEAADDGGMTAIPVARIVDALENPGGKYQHNGKEQTYPNIKMIWWAGGGNFTHHQDTNRLIKAWQKPEMIVVSECYWTAAAKHADIVLPITTSFERNDLTMTGDYSNQHIVPMKQAVAPQFEARNDFDVFADLAELLKPGGKEIYTEGKDEMAWLKFFYDAAQKGARAQRVTMPMFNAFWQQNKLIEMRHSEKNEQYVRYGDFRADPVKNALGTPSGKIEIYSKTLEKFGYKDCPAHPTWLAPDEWKGTADEKQLQLLTAHPAHRLHSQLNYAELRKKYAIADREPITIHTEDAARFGIANGDLVRVWNKRGQILTGAVVTDGIKKGVVCVHEGAWPDLENGLCKNGSANVLTADIPSSQLANACAGNSALVYIEKYTGNAPKLTAFDQPAVQA,5.67 ± 0.3,–,5.13,–,–,4.75 ± 0.64,11.5 ± 6.1,–,8.13,–,–,–
